Source: the supplement of paper PMC12338614
± gives the uncertainty stated by the source.

B1: library; numbered along this chain (parent)
chain: MEVVDPQQLGMFTEGELMSVGMDTFIHRIDSTEVIYQPRRKRAKLIGKYLMGDLLGEGSYGKVKEVLDSETLCRRAVKILKKKKLRRIPNGEANVKKEIQLLRRLRHKNVIQLVDVLYNEEKQKMYMVMEYCVCGMQEMLDSVPEKRFPVCQAHGYFCQLIDGLEYLHSQGIVHKDIKPGNLLLTTGGTLKISDLGVAEALHPFAADDTCRTSQGSPAFQPPEIANGLDTFSGFKVDIWSAGVTLYNITTGLYPFEGDNIYKLFENIGKGSYAIPGDCGPPLSDLLKGMLEYEPAKRFSIRQIRQHSWFRKKHPPAEAPVPIPPSPDTKDRWRSMTVVPYLEDLHGADEDEDLFDIEDDIIYTQDFTVPGQVPEEEASHNGQRRGLPKAVCMNGTEAAQLSTKSRAEGRAPNPARKACSASSKIRRLSACKQQ

Variants of: B1
Assay: STK11 functional score (HeLa growth suppression), rescaled enrichment; synonymous median = 1, nonsense median = 0 (normalised score)
Conditions: with HeLa; variant type: missense
Experimental: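 Deep mutational scan (TileSeq/POPCode codon randomisation) of full-length codon-optimised STK11 cDNA integrated at a Bxb1 landing pad (AAVS1) in HeLa cells. Restoring functional STK11 suppresses HeLa proliferation. Variant frequencies were measured by NGS before and after about two weeks of growth. The error-corrected enrichment log-ratio was rescaled so that synonymous median = 1 and nonsense median = 0, scores above 1 were compressed, and codon-level and three biological replicate scores were combined; error is the bootstrapped standard error. Scale: synonymous median = 1, nonsense median = 0; below 0.5 = damaging.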
Variant I35A has an STK11 functional score of 1.43 ± 0.11. F264P showed an STK11 functional score of 1.4 ± 0.39. Variant S401C has an STK11 functional score of 1.05 ± 0.36. L190R showed an STK11 functional score of 0.223 ± 0.19. With A406C the STK11 functional score was 1.52 ± 0.2. In the case of P369I, the STK11 functional score is reported as 1.21 ± 0.27. C134T showed an STK11 functional score of 1.61 ± 0.28. With Y60I the STK11 functional score was 1.23 ± 0.3. Variant H306E has an STK11 functional score of 1.19 ± 0.38. With Q112V the STK11 functional score was 1.01 ± 0.1. With R74V the STK11 functional score was 0.653 ± 0.33. In the case of G58N, the STK11 functional score is reported as 0.559 ± 0.29. Work on D330R yielded an STK11 functional score of 1.47 ± 0.25. In the case of L282I, the STK11 functional score is reported as 0.764 ± 0.1. For Q152C, the STK11 functional score was 1.26 ± 0.19. For D359I, the STK11 functional score was 0.856 ± 0.075. With K96F the STK11 functional score was 0.801 ± 0.17. H168M showed an STK11 functional score of 0.519 ± 0.14. With S283C the STK11 functional score was 0.98 ± 0.14. V368T gave an STK11 functional score of 1.56 ± 0.18. I267V was tested, and the STK11 functional score was 1.09 ± 0.29. For R409M, the STK11 functional score was 1.15 ± 0.63. I274V showed an STK11 functional score of 0.7 ± 0.15. Work on G279L yielded an STK11 functional score of 1.41 ± 0.29. L164V gave an STK11 functional score of 0.774 ± 0.13. Work on G288F yielded an STK11 functional score of 0.357 ± 0.18. Work on A76W yielded an STK11 functional score of -0.171 ± 0.28. With I356D the STK11 functional score was 1.27 ± 0.43. With G233T the STK11 functional score was 1.7 ± 0.4. In the case of K81W, the STK11 functional score is reported as 0.565 ± 0.079. Work on C210E yielded an STK11 functional score of 0.0554 ± 0.2. In the case of H168A, the STK11 functional score is reported as 1.25 ± 0.34. Variant G227Y has an STK11 functional score of 1.46 ± 0.42. With K48N the STK11 functional score was 0.966 ± 0.39. In the case of T212Y, the STK11 functional score is reported as 1.38 ± 0.12. Variant D284A has an STK11 functional score of 0.668 ± 0.26. With I88D the STK11 functional score was 1.58 ± 0.25. F219V showed an STK11 functional score of 0.825 ± 0.13. I260V was tested, and the STK11 functional score was 1.07 ± 0.18. With D229F the STK11 functional score was 0.981 ± 0.57. With S232Q the STK11 functional score was 1.03 ± 0.58. In the case of E98G, the STK11 functional score is reported as 0.397 ± 0.099. With E223S the STK11 functional score was 0.551 ± 0.1. With P38V the STK11 functional score was 1.01 ± 0.095. Variant S404N has an STK11 functional score of 1.52 ± 0.28. In the case of V337F, the STK11 functional score is reported as 0.545 ± 0.31. Q364G showed an STK11 functional score of 0.7 ± 0.2. Work on S401M yielded an STK11 functional score of 1.44 ± 0.2. Q100F was tested, and the STK11 functional score was 0.976 ± 0.19. In the case of Y131R, the STK11 functional score is reported as 0.218 ± 0.086. Variant W239K has an STK11 functional score of 0.155 ± 0.096. Variant P319Y has an STK11 functional score of 1.46 ± 0.21. Variant V4H has an STK11 functional score of 1.65 ± 0.25. V20L showed an STK11 functional score of 0.787 ± 0.15. T395D was tested, and the STK11 functional score was 1.56 ± 0.2. Q137A showed an STK11 functional score of 1.02 ± 0.15. R384W was tested, and the STK11 functional score was 1.35 ± 0.15. In the case of D194V, the STK11 functional score is reported as -0.261 ± 0.096. S240V was tested, and the STK11 functional score was 0.33 ± 0.1. Variant D343Q has an STK11 functional score of 0.992 ± 0.12. In the case of Q432G, the STK11 functional score is reported as 1.61 ± 0.27. Variant A200V has an STK11 functional score of 0.901 ± 0.23. L167H gave an STK11 functional score of -0.00514 ± 0.083. With V110M the STK11 functional score was 0.358 ± 0.072. G242Y showed an STK11 functional score of -0.0296 ± 0.066. V34L was tested, and the STK11 functional score was 1.13 ± 0.19. Variant A198I has an STK11 functional score of -0.192 ± 0.12. Work on K41E yielded an STK11 functional score of 1.42 ± 0.65. P387A gave an STK11 functional score of 1.32 ± 0.35. C278R gave an STK11 functional score of 1.51 ± 0.28. G268A was tested, and the STK11 functional score was 0.916 ± 0.13. In the case of A218N, the STK11 functional score is reported as 1.35 ± 0.28. D343R was tested, and the STK11 functional score was 1.11 ± 0.2. F204G gave an STK11 functional score of 1.3 ± 0.17. E65G gave an STK11 functional score of 0.154 ± 0.087. For A406I, the STK11 functional score was 1.6 ± 0.32. Work on E70Y yielded an STK11 functional score of 1.14 ± 0.29. In the case of G270P, the STK11 functional score is reported as 1.43 ± 0.19. In the case of I361Q, the STK11 functional score is reported as 0.616 ± 0.2. F366P gave an STK11 functional score of 1.62 ± 0.14. For R383G, the STK11 functional score was 1.11 ± 0.35. E145Y gave an STK11 functional score of 1.12 ± 0.08. With K124G the STK11 functional score was 1.04 ± 0.36. P254F was tested, and the STK11 functional score was 0.445 ± 0.29. T367F gave an STK11 functional score of 1.36 ± 0.18. For E357P, the STK11 functional score was 1.58 ± 0.14. With L117R the STK11 functional score was 1.15 ± 0.13. Variant C391S has an STK11 functional score of 0.743 ± 0.67. D229W gave an STK11 functional score of 0.347 ± 0.17. Y36H gave an STK11 functional score of 1.39 ± 0.48. G215Q gave an STK11 functional score of 0.0889 ± 0.12. Variant W239E has an STK11 functional score of -0.254 ± 0.099. L400S gave an STK11 functional score of 1.07 ± 0.21. Variant K287Y has an STK11 functional score of 0.843 ± 0.36. In the case of N380F, the STK11 functional score is reported as 1.06 ± 0.12. In the case of G279S, the STK11 functional score is reported as 1.25 ± 0.12. In the case of H174P, the STK11 functional score is reported as 0.0698 ± 0.089. I172F showed an STK11 functional score of 0.904 ± 0.34. Variant G135I has an STK11 functional score of 1.69 ± 0.39. In the case of S334H, the STK11 functional score is reported as 1.05 ± 0.61. Q382T gave an STK11 functional score of 1.29 ± 0.33. With K64L the STK11 functional score was 1.54 ± 0.26. For P314A, the STK11 functional score was 1.13 ± 0.17. L282W was tested, and the STK11 functional score was 0.522 ± 0.086. For G394E, the STK11 functional score was 1.26 ± 0.23. F298I was tested, and the STK11 functional score was 1.35 ± 0.61. F231S was tested, and the STK11 functional score was 0.515 ± 0.38. Variant P89H has an STK11 functional score of 1.3 ± 0.17. D162V gave an STK11 functional score of 1.17 ± 0.11. Work on A295I yielded an STK11 functional score of 1.35 ± 0.48. F264R was tested, and the STK11 functional score was 0.806 ± 0.25. In the case of M22Y, the STK11 functional score is reported as 1.57 ± 0.096. With R147P the STK11 functional score was 0.188 ± 0.08. Work on L182H yielded an STK11 functional score of -0.198 ± 0.33. Work on N247E yielded an STK11 functional score of 1.33 ± 0.12. Work on E376Y yielded an STK11 functional score of 1.56 ± 0.19. Variant I248Y has an STK11 functional score of 0.287 ± 0.15. For F25I, the STK11 functional score was 1.69 ± 0.52. For E199K, the STK11 functional score was 1.2 ± 0.76. For E14S, the STK11 functional score was 1.34 ± 0.15. Variant K416L has an STK11 functional score of 0.986 ± 0.17. Q399P was tested, and the STK11 functional score was 1.35 ± 0.52. With R426L the STK11 functional score was 1.4 ± 0.16. In the case of V243E, the STK11 functional score is reported as 0.204 ± 0.47. G61M was tested, and the STK11 functional score was 0.0916 ± 0.085. S325D was tested, and the STK11 functional score was 1.09 ± 0.29. Variant N380G has an STK11 functional score of 1.57 ± 0.31. V150L showed an STK11 functional score of 0.401 ± 0.14. In the case of P149M, the STK11 functional score is reported as 1.02 ± 0.2. With A153M the STK11 functional score was -0.195 ± 0.097. In the case of I46S, the STK11 functional score is reported as 0.762 ± 0.1. C151H gave an STK11 functional score of 0.883 ± 0.11. Work on P280R yielded an STK11 functional score of 1.14 ± 0.17. S142R gave an STK11 functional score of 0.875 ± 0.4. Work on G227M yielded an STK11 functional score of 1.69 ± 0.22. S213R gave an STK11 functional score of 1.04 ± 0.3. S401N was tested, and the STK11 functional score was 1.4 ± 0.14. K108L was tested, and the STK11 functional score was 1.1 ± 0.15. Variant T363L has an STK11 functional score of 1.17 ± 0.15. Variant Q220H has an STK11 functional score of 0.87 ± 0.2. Variant E70G has an STK11 functional score of 0.582 ± 0.42. A417E showed an STK11 functional score of 1.22 ± 0.18. Variant L290E has an STK11 functional score of -0.387 ± 0.062. C132T was tested, and the STK11 functional score was 1.52 ± 0.24. Variant N90T has an STK11 functional score of 0.558 ± 0.27. With I79E the STK11 functional score was 0.0444 ± 0.2. With E138A the STK11 functional score was 1.09 ± 0.15. Q37N showed an STK11 functional score of 0.934 ± 0.53. For S240I, the STK11 functional score was 0.369 ± 0.095. D330N was tested, and the STK11 functional score was 1.44 ± 0.48. In the case of H202W, the STK11 functional score is reported as 0.389 ± 0.18. Work on K235T yielded an STK11 functional score of 0.534 ± 0.21. Variant E121I has an STK11 functional score of 1.42 ± 0.52. E342D was tested, and the STK11 functional score was 0.774 ± 0.55. Work on L117V yielded an STK11 functional score of 0.689 ± 0.083. With Y126T the STK11 functional score was -0.0466 ± 0.081. Variant V63C has an STK11 functional score of 1.4 ± 0.54. In the case of P294M, the STK11 functional score is reported as 1.13 ± 0.4. C151A showed an STK11 functional score of 1.4 ± 0.25. In the case of L290Q, the STK11 functional score is reported as -0.237 ± 0.2. Work on L386Q yielded an STK11 functional score of 1.37 ± 0.15. In the case of P221V, the STK11 functional score is reported as 1.01 ± 0.12. G346V was tested, and the STK11 functional score was 0.838 ± 0.7. R415D showed an STK11 functional score of 1.43 ± 0.23. Variant I161C has an STK11 functional score of 1.03 ± 0.48. V337D showed an STK11 functional score of 1.2 ± 0.39. Variant Q137S has an STK11 functional score of 1.42 ± 0.23.
